{
  "source": "patent US20140296131A1",
  "about": "(Novo Nordisk, published 2014)",
  "key": {"[1]": {"biological_target": "isolated N-terminal extracellular domain of the GLP-1 receptor (nGLP-1R) (UniProt P43220)", "assay": "SPA competition: displacement of 125I-Exendin-4(9-39) from nGLP-1R"}, "human GLP-1 receptor [2]": {"biological_target": "T1, human GLP-1 receptor (human, UniProt P43220 24-463)", "assay": "cell-based or functional assay"}, "human GLP-1 receptor [3]": {"biological_target": "T1, human GLP-1 receptor", "assay": "SPA competition: displacement of 125I-GLP-1 from BHK tk-ts13 membranes with the human GLP-1 receptor", "procedure": "Test compounds/peptides, membranes, SPA-particles and [¹²⁵I] are diluted in assay buffer. 25 ul (micro liter) of test compounds/peptides are added to Optiplate. Buffer is added (50 ul). Add 5-10 ug protein/sample (50 ul) corresponding to 0.1-0.2 mg protein/ml (to be preferably optimised for each membrane preparation). Add SPA-particles (Wheatgerm agglutinin SPA beads) RPNQ 0001) 0.5 mg/well (50 ul). […] The plates are sealed with PlateSealer. Incubate for 120 minutes at 30° C. while shaking. The plates are centrifuged (1500 rpm, 10 min) and counted in Topcounter."}, "[4]": {"biological_target": "T2, isolated N-terminal extracellular domain of the GLP-1 receptor (nGLP-1R) (UniProt P43220 24-145, limits assumed, biotinylated with BNHS, immobilized on streptavidin-coated SPA beads)", "T2 construct": "extracellular domain; also called N-terminal GLP-1 receptor", "assay": "SPA competition: displacement of 125I-Exendin-4(9-39) from biotinylated nGLP-1R on streptavidin SPA beads", "procedure": "The nGLP1R in 0.1M NaHCO₃ was biotinylated using 75 μg BNHS (Sigma H1759) to 1 mg protein. The biotinylated nGLP1R was subsequently dialyzed against PBS. All reagents and derivatives were diluted in PBS with 0.05% v/v Tween 20. […] The plates were incubated on a shaker at RT for 3 hours. The SPA particles were spun down by centrifugation for 10 min at 1500 rpm and the plates were counted in a TopCount-NXT (PerkinElmer)."}},
  "note": "Where no end group is shown, it is not given here. [ ]: non-standard residue; d: D form. Aib = CC(C)(N)C(=O)O",
  "data": [
    {"molecule": "liraglutide (peptide)", "values": [
      {"measurement": "IC50", "setting": "[1]", "value": 1500, "unit": "nM"}
    ]},
    {"molecule": "H[Aib]EGTFTSDVSSYKEEQAVREFIEWLV-NH2 (N-terminus assumed; SMILES CC[C@H](C)[C@H](NC(=O)[C@H](Cc1ccccc1)NC(=O)[C@H](CCC(=O)O)NC(=O)[C@H](CCCNC(=N)N)NC(=O)[C@@H](NC(=O)[C@H](C)NC(=O)[C@H](CCC(N)=O)NC(=O)[C@H](CCC(=O)O)NC(=O)[C@H](CCC(=O)O)NC(=O)[C@H](CCCCN)NC(=O)[C@H](Cc1ccc(O)cc1)NC(=O)[C@H](CO)NC(=O)[C@H](CO)NC(=O)[C@@H](NC(=O)[C@H](CC(=O)O)NC(=O)[C@H](CO)NC(=O)[C@@H](NC(=O)[C@H](Cc1ccccc1)NC(=O)[C@@H](NC(=O)CNC(=O)[C@H](CCC(=O)O)NC(=O)C(C)(C)NC(=O)[C@@H](N)Cc1c[nH]cn1)[C@@H](C)O)[C@@H](C)O)C(C)C)C(C)C)C(=O)N[C@@H](CCC(=O)O)C(=O)N[C@@H](Cc1c[nH]c2ccccc12)C(=O)N[C@@H](CC(C)C)C(=O)N[C@H](C(N)=O)C(C)C)", "note": "[[Aib8, Lys20, Glu22, Val25, Arg26, Glu30] GLP-1 (7-33) Amide]", "values": [
      {"measurement": "EC50 (potency, stimulation of cAMP formation)", "setting": "human GLP-1 receptor [2]", "value": "< 0.3", "unit": "nM"}
    ]},
    {"molecule": "HAEGTFTSDVSSYLEEQAAREFIAWLV-NH2", "note": "[[Glu22, Arg26]GLP-1 (7-33) Amide]", "values": [
      {"measurement": "EC50 (potency, stimulation of cAMP formation)", "setting": "human GLP-1 receptor [2]", "value": "< 0.3", "unit": "nM"}
    ]},
    {"molecule": "HAEGTFTSDVSSYLEEQAVREFIAWLV-NH2", "note": "[[Glu22, Val25, Arg26] GLP-1 (7-33)amide]", "values": [
      {"measurement": "EC50 (potency, stimulation of cAMP formation)", "setting": "human GLP-1 receptor [2]", "value": "< 0.3", "unit": "nM"}
    ]},
    {"molecule": "HAEGTFTSDVSSYLEGQAAKEFIAWLV (ends and bridges not checked, also called truncated natural GLP-1; truncated natural GLP-1(7-3)) peptide)", "note": "[truncated natural, human GLP-1(7-33)]", "values": [
      {"measurement": "EC50 (potency, stimulation of cAMP formation)", "setting": "human GLP-1 receptor [2]", "value": 11.3, "unit": "nM"},
      {"measurement": "IC50", "setting": "human GLP-1 receptor [3]", "value": 241, "unit": "nM"},
      {"measurement": "IC50", "setting": "[4]", "value": 886, "unit": "nM"}
    ]},
    {"molecule": "HAEGTFTSDVSSYLEEQAAREFIAWLV-OH", "note": "[[Glu22, Arg26]GLP-1(7-33)peptide]", "values": [
      {"measurement": "EC50 (potency, stimulation of cAMP formation)", "setting": "human GLP-1 receptor [2]", "value": "< 0.3", "unit": "nM"}
    ]}
  ]
}
